The record followed here is publication PMC9632566 (Nature Communications, 2022).

The assay deals with NA of A/California/04/2009 (A/H1N1pdm09) (Influenza A virus A/California/04/2009 …, strain). Kind of assay: ELISA. The settings on record: one partner purified.

B1: DA05A30 (antibody, V domains shown)
VH: EVQLVESGAEVKKPGESLKISCQGSGYRFSSHWIVWVRQMPGKGLEWMGIIYPGDSDTRYSPSFQGQVTISTDKSNAYLQWSSLKASDTGMYYCARHPQPYGSGYYGEFDYWGQGTLVTVSS
VL: DIQMTQPPSVSGAPGQRVTISCTGSSSNIGAGYDVYWYQQFPGTAPKLLIYANDNRPSGVPDRFSGSKSGTSASLVITGLQAEDEADYYCQSYDSSLSGSVVFGGGTKLTVL
Take B1: the binding result is reported as “binds”.
